Patent US20110166208

Test system: bacterially-expressed calmodulin (non-methylated)

Chain of Xenopus laevis calmodulin protein methyltransferase (chain, as listed by the source): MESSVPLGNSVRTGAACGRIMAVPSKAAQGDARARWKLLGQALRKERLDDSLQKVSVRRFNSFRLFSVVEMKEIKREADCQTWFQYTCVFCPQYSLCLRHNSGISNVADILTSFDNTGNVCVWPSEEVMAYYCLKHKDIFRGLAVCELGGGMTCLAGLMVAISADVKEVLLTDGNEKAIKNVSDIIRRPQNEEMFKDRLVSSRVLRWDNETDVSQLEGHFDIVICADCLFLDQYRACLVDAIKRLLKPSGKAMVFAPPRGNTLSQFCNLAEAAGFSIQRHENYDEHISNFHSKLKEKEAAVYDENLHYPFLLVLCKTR

Row | Substance | methyltransferase activity (in vitro) | catalytic activity | incorporation of radiolabel from [3H-methyl]AdoMet into calmodulin (phosphorimage) | specific activity
1 | Arabidopsis thaliana calmodulin protein methyltransferase | Each of the proteins exhibited robust methyltransferase activity (in vitro) toward non-methylated forms of calmodulin |  |  | 
2 | Homo sapiens calmodulin protein methyltransferase (valine at 209, catalytically active form) | Each of the proteins exhibited robust methyltransferase activity (in vitro) toward non-methylated forms of calmodulin | alteration of the sequence of the clone to correspond to the gene-predicted valine restored catalytic activity to amounts similar to those observed for other cloned calmodulin KMTs | the radiolabel from [^3H-methyl]AdoMet was incorporated into calmodulin, in the presence of the recombinant calmodulin methyltransferases obtained from SEQ ID NO: 1, 2, and 3 | 
3 | Homo sapiens calmodulin protein methyltransferase, initially expressed clone with V209F (cDNA Accession BC 053733) |  | the initially expressed form of Hscalmodulin PKMT was catalytically inactive |  | 
4 | Rattus norvegicus calmodulin protein methyltransferase | Each of the proteins exhibited robust methyltransferase activity (in vitro) toward non-methylated forms of calmodulin |  | the radiolabel from [^3H-methyl]AdoMet was incorporated into calmodulin, in the presence of the recombinant calmodulin methyltransferases obtained from SEQ ID NO: 1, 2, and 3 | 56 nmoles min^-1 mg protein^-1
5 | Tribolium casteaneum calmodulin protein methyltransferase | Each of the proteins exhibited robust methyltransferase activity (in vitro) toward non-methylated forms of calmodulin |  |  | 
6 | Xenopus laevis calmodulin protein methyltransferase | Each of the proteins exhibited robust methyltransferase activity (in vitro) toward non-methylated forms of calmodulin |  | the radiolabel from [^3H-methyl]AdoMet was incorporated into calmodulin, in the presence of the recombinant calmodulin methyltransferases obtained from SEQ ID NO: 1, 2, and 3 | 
